We go through 3 substances from PMC4978539.

Assay in all cases: proximity ligation
Experiment [1] addresses HIV-1 Gag with the CA mutation G89A, expressed from a proviral point mutant (HIV-1).
Experiment [2] has as its target HIV-1 Gag with the CA mutations Q7A/Q9A, expressed from a proviral point mutant (HIV-1).
The target in experiment [3] is HIV-1 Gag, wild type, expressed from the proviral clone pNL4-3 (HIV-1).
The target of the next experiment is mCh-GagQ7A/Q9A (HIV-1).
The next experiment has as its target mCherry-Gag (HIV-1).

Sequence of Cyclophilin A (P62937 whole entry): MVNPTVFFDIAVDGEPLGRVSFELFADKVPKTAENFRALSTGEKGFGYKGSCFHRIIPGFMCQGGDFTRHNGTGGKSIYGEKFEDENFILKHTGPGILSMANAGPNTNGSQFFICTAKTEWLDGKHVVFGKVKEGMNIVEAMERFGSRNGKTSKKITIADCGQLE
Sequence of Ras-GAP SH3 domain-binding protein (G3BP1), endogenous (Q13283 whole entry, the tested form may be a part): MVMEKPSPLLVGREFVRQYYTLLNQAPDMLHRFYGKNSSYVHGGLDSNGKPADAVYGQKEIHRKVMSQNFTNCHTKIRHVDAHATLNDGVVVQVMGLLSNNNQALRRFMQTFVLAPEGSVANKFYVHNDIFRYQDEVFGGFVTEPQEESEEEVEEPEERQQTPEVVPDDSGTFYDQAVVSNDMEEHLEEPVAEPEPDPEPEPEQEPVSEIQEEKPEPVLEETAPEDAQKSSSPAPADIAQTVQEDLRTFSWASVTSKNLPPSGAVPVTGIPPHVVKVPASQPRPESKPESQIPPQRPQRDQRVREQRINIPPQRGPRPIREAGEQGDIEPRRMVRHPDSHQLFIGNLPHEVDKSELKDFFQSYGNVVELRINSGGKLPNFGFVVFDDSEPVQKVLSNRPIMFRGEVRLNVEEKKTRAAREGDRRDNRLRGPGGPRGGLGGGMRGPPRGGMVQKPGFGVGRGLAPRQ

Regarding “Cyclophilin A (from UniProt P62937 1-165) (natural protein)”, the results for the PLA spots/cell in experiment [1], in experiment [2] and in experiment [3] were 18.7 spots/cell, 27.4 spots/cell and 60.3 spots/cell, respectively.
For the substance “Ras-GAP SH3 domain-binding protein (G3BP1), endogenous (from UniProt Q13283 1-466) (natural protein)”, the PLA spots/cell is 33.8 spots/cell in the experiment with mCh-GagQ7A/Q9A (HIV-1) and 107 spots/cell with mCherry-Gag (HIV-1).
Regarding “eukaryotic elongation factor 2, endogenous (from UniProt P13639 1-858) (natural protein)”, the figures for the PLA spots/cell in experiment [1], in experiment [2] and in experiment [3] were 3.44 spots/cell, 5.1 spots/cell and 11.6 spots/cell, respectively.
